Measured values published in patent US20230287088A1 (BIONTECH, published 2023).
Changes are numbered by the printed parent chain. Like-named read-outs stand apart in the source and are kept apart here.

B1: P043.A.00047.H08 (protein sample ID 447) (antibody, V domains shown)
VH: QSLEESGGDLVKPGASLTLTCTASGFSFSSDGMCWVRQAPGKGLEWIACIAAGSSGSTYYATWAQGRFTISKSSSTTVTLQMTSLTAADTATYFCAGEDYTGNNYYALWGPGTLVTVSS
VL: AIDMTQTPSPVSAVVGDTVTINCQASENIYSFLAWYQQKPGQPPKLLIYFASKLASGVPSRFKGSGSGTQFTLTISDVHSDDAAIYYCQQTGTYSDADNTFGGGTEVVVK
notes: also called antibody with the Protein sample ID 447
B2: P043.A.00109.B12 (antibody, V domains shown)
VH: QSLEESGGGLVKPEGSLTLTCKASGFDLNTYYYMCWVRQAPGKGLEWIACIATSDSGHTAYASWARGRFTISKTSSTTVTLQMTGLTAADTATYFCARGGRSVGDGVDLWGPGTLVTVSS
VL: DIVMTQTPASVEAAVGGTVTIKCQASQSISSWLAWYQQKPGQPPKLLIYDASDLASGVPSRFKGSGSGTEFTLTISDLESADAATYYCQSYLYVESGSHGFGFGGGTEVVVR
notes: also called 468; protein sample ID 468
B3: P043.A.00117.C08 (protein sample ID 469) (antibody, V domains shown)
VH: B2 VH with A52G
VL: B2 VL with S52F, V94G
B4: P043.A.00095.D06 (protein sample ID 470) (antibody, V domains shown)
VH: QEQLEESGGDLVKPEGSLTLTCTASGFSFSSNYWICWVRQAPGKGLEWIGCIYIGSGDTYYASWAKGRFTISKTSSTTVTLQMTSLTAADTATYFCARSYTPGSYYNMNLWGPGTLVTVSS
VL: DVVMTQTPSSVSAAVGGTVTINCQASQQISNELSWYQQKSGQPPKLLIYDASDLASGVPSRFKGSGSGTEFTLTISDLESADAATYYCQSTGGASSDGNAFGGGTEVVVK
notes: also called S1 targeting antibody 470; anti-S1-antibody 470
B5: P043.A.00023.E05 (antibody, V domains shown)
VH: QSLEESGGRLVTPGTPLTLTCTVSGFSLSSYAMSWVRQAPGKGLEWIGIISSSGSTYYASWAKGRFTISKTSTTVDLKITSPTTEDTATYFCARDASSRGYYYYYGMDPWGPGTLVTVSS
VL: AIQMTQSPSSLAASVGDTVTITCKASEDIGYGLNWYQQKLGIAPKLLIYGANTLESGVPSRFSGSGSETDYTLTISSVQAEDAGIYYCQQGYSTPLTFGAGTKVEIK
notes: also called 443; protein sample ID 443
B6: P043.A.00023.A08 (protein sample ID 446) (antibody, V domains shown)
VH: QSVEESGGRLVTPGTPLTLTCTVSGFSLSKYAMSWVRQAPGKGLEWIGIISSGGSTYYASWAKGRFTISKTSSTTVDLKITSPTTEDTATYFCARAGYPGYSPHYFNIWGPGTLVTVSL
VL: B5 VL with G32E, S63T, L96P
B7: P043.A.00017.E07 (protein sample ID 449) (antibody, V domains shown)
VH: QSVEESGGRLVTPGTPLTLTCTVSGFSLSSYAMSWVRQAPGKGLEWIGIISSSGSTYYASWAKGRFTISKTSTTVDLKITSPTTEDTATYFCARAMYPGYSTGVYNIWGPGTLVTVSL
VL: B5 VL with G32E, S93N, L96N
B8: P043.A.00092.C12 (antibody, V domains shown)
VH: QEELKETGGGLVQPGGSLTLSCKASGFDFSSYYMSWVRQAPGKGLEWIGVIYASKGSTDYASWVNGRFTISSDNAQNTVDLQMNSLTAADTATYYCARSKRFYTYGYAGYAYAHYYYGMDLWGPGTLVTVSS
VL: B5 VL with N52D
notes: also called 472; protein sample ID 472
B9: P043.A.00020.D06 (protein sample ID 444) (antibody, V domains shown)
VH: QSVEESGGRLVTPGTPLTLTCTVSGFSLSSYAMNWVRQAPGKGLEWIGIISSSGSTYYASWAKGRFTISKTSTTVDLKITSPTTEDTATYFCARVGAGYAGYGYDNYYGMDPWGPGTLVTVSS
VL: B5 VL
B10: P043.A.00017.E04 (antibody, V domains shown)
VH: QSVEESGGRLVTPGTPLTLTCTVSGFSLNNYAMNWVRQAPGKGLEWIGIISSSGNTYYANWAKGRFTISKTSTTVDLKITSPTTEDTATYFCARDSYPGYSPYYGMDPWGPGTLVTVSS
VL: B5 VL with G30A, A43T, D70H, S93N, L96P
B11: P043.A.00097.B02 (antibody, V domains shown)
VH: QELVESGGGLVQAGESLKLSCKASGIDFSSYGISWVRQAPGKGLEWIAYIYPGFGITNYANSVKGRFTISSDNAQNTVFLQMTSLTASDTATYFCTRAYASSSGYYIHYFNLWGPGTLVTVSS
VL: B5 VL with G91A
B12: P043.A.00024.C11 (protein sample ID 451) (antibody, V domains shown)
VH: B5 VH with L3V, S55T, R65P, D95G, A96G, S97A, S98G, R99Y, Y102A, Y103H
VL: B5 VL
B13: P043.A.00018.C02 (protein sample ID 450) (antibody, V domains shown)
VH: B5 VH with L3V, S51N, S53G, G54R, S97T, R99I, Y103R
VL: B5 VL

Legend:
[1] = biological target: T1, Human-Fc-tagged SARS-CoV2 S1 recombinant protein (Sino Biologicals) (SARS-CoV-2, UniProt P0DTC2 16-685)
[2] = biological target: T2, Mouse-Fc-tagged SARS-CoV2 S1-RBD (Sino Biologicals) recombinant protein (SARS-CoV-2, UniProt P0DTC2 319-541); test: ELISA on coated S1-RBD-mFc
T2 construct: domain: S1-RBD

[3] = biological target: T3, His-tagged SARS-CoV S1-RBD (Sino Biologicals) (SARS-CoV, UniProt P59594 306-527); test: ELISA, His-tagged SARS-CoV S1-RBD coated, anti-human Fc detection
T3 construct: domain: S1-RBD; Bought reagent

[4] = biological target: T2, Mouse-Fc-tagged SARS-CoV2 S1-RBD (Sino …); test: SPR (Biacore T200), RBD-mFc captured via anti-mouse-Fc on CM5, 1:1 model
[5] = biological target: T2, Mouse-Fc-tagged SARS-CoV2 S1-RBD (Sino …); test: SPR, S1-RBD-mFc captured via anti-mouse-Fc antibody, 1:1 model
[6] = biological target: T2, Mouse-Fc-tagged SARS-CoV2 S1-RBD (Sino …); test: competition ELISA: blocks S1-RBD-mFc binding to coated ACE-2 ECD
[7] = biological target: T1, Human-Fc-tagged SARS-CoV2 S1 …; test: ELISA on coated S1-hFc, 3 µg/ml; rabbit antibody in B-cell supernatant
[8] = biological target: T1, Human-Fc-tagged SARS-CoV2 S1 …; test: ELISA on coated S1-hFc, 0.85 µg/ml; rabbit antibody in B-cell supernatant
[9] = biological target: T2, Mouse-Fc-tagged SARS-CoV2 S1-RBD (Sino …)
[10] = biological target: T3, His-tagged SARS-CoV S1-RBD (Sino …); test: ELISA on coated His-tagged SARS-CoV S1-RBD [D00020 Figure 8A continued]
[11] = biological target: T2, Mouse-Fc-tagged SARS-CoV2 S1-RBD (Sino …); test: ELISA on coated S1-RBD-mFc; remark: listed apart in the source
[12] = biological target: T2, Mouse-Fc-tagged SARS-CoV2 S1-RBD (Sino …); test: competition ELISA: blocks S1-RBD-mFc binding to coated ACE-2 ECD; remark: listed apart in the source
[13] = biological target: T2, Mouse-Fc-tagged SARS-CoV2 S1-RBD (Sino …); remark: listed apart in the source

Binder | IC50 [1] [ng/mL] | EC50 [2] [ng/mL] | EC50 [3] [ng/mL] | koff [4] [s⁻¹] | Kd [5] [nM] | kon [5] [M⁻¹ s⁻¹] | IC50 [6] [ng/mL] | EC50 [7] [ng/mL] | EC50 [8] [ng/mL] | Kd [9] [nM] | koff [5] [s⁻¹] | binding result [10] | EC50 [11] [ng/mL] | IC50 [12] [ng/mL] | IC90 [12] [ng/mL] | IC50 [13] [ng/mL]
B1 | 16.3 | 9.6 | 8.1 | 6.72e-05 | 0.228 | 296000 | 29.9 | 19.5 |  |  |  |  |  |  |  | 
B2 | 18.1 | 5.6 |  |  |  |  | 21.6 |  | 18 |  |  |  |  |  |  | 
B3 | 14.2 | 6.2 | 88.5 |  |  |  | 19.2 |  | 15.1 |  |  |  |  |  |  | 
B4 | 12.7 | 8.6 |  |  |  |  | 19.6 |  | 10.1 | 0.0104 |  |  |  |  |  | 
B5 | 8.2 | 11.2 |  |  | 0.268 | 982000 | 34.9 | 16.6 |  |  | 0.000263 | no binding (tested: 1000 ng/ml) |  |  |  | 
B6 | 4.7 | 8.1 |  |  | 0.115 | 2.12e+06 | 37.3 | 8.5 |  |  | 0.000243 | no binding (tested: 1000 ng/ml) | 7 | 28 | 18000 | 
B7 | 3.6 | 8.8 |  |  | 0.308 | 780000 | 53.9 | 5.3 |  |  | 0.000239 | no binding (tested: 1000 ng/ml) | 6.5 |  |  | 50.8
B8 | 6.5 | 8.3 |  |  |  |  | 29.9 |  | 6.8 |  |  |  |  |  |  | 
B9 | 7.2 | 7.3 |  |  | 1.36 | 236000 | 60.3 | 5.7 |  |  | 0.00032 | no binding (tested: 1000 ng/ml) | 8.2 |  |  | 65.1
B10 | 9.3 | 8.2 |  |  | 0.422 | 445000 | 32.1 | 19.6 |  |  | 0.000327 | no binding (tested: 1000 ng/ml) |  |  |  | 
B11 | 5.5 | 3.4 |  |  |  |  | 41.7 |  | 5.4 |  |  |  |  |  |  | 
B12 | 3.6 | 7 |  |  | 0.77 | 398000 | 42.3 | 4.8 |  |  | 0.000307 | no binding (tested: 1000 ng/ml) | 6.4 | 39.1 | 99200 | 
B13 | 1 | 8.2 |  |  | 0.398 | 714000 | 43.3 | 1.7 |  |  | 0.000283 | no binding (tested: 1000 ng/ml) | 7.7 | 28.6 | 61200 | 
